Assay results as given in US20100216161.
Read-outs that look alike come from different tables or passages of the source.

Experiments:
[1] = test system: NS5AB peptide substrate NH2-EDVV-(alpha)Abu-CSMSY-COOH
[2] = molecular target: T1, FITC-NS5AB-1 peptide substrate FITC-Ahx-EDVV-(alpha)Abu-CSMSYTKK-NH2
T1 chain: XEDVVXCSMSYTKK

[3] = molecular target: T2, NS5AB peptide substrate NH2-EDVV-(alpha)Abu-CSMSY-COOH
T2 chain: EDVVXCSMSY

[4] = molecular target: T3, NS5AB-EDANS peptide substrate NH2-EDVV-(alpha)Abu-CSMSYT-Asp(EDANS)-KKK-COOH
T3 chain: EDVVXCSMSYTDKKK

In the case of “HCV NS3 protease domain (residues Ala1-Ser181 of HCV NS3 protease, C-terminal hexa-histidine tag)”, the Km [1] is reported as 25 µM and the kcat/Km [1] is reported as 30000 M⁻¹ s⁻¹.

B1: NS3•4A protein with an N-terminal histidine tag (protein)
chain: MSHHHHHHAMAPITAYAQQTRGLLGCIITSLTGRDKNQVEGEVQIVSTATQTFLATCINGVCWTVYHGAGTRTIASPKGPVIQMYTNVDQDLVGWPAPQGSRSLTPCTCGSSDLYLVTRHADVIPVRRRGDSRGSLLSPRPISYLKGSSGGPLLCPAGHAVGLFRAAVCTRGVTKAVDFIPVENLETTMRSPVFTDNSSPPAVPQSFQVAHLHAPTGSGKSTKVPAAYAAQGYKVLVLNPSVAATLGFGAYMSKAHGVDPNIRTGVRTITTGSPITYSTYGKFLADGGCSGGAYDIIICDECHSTDATSILGIGTVLDQAETAGARLVVLATATPPGSVTVSHPNIEEVALSTTGEIPFYGKAIPLEVIKGGRHLIFCHSKKKCDELAAKLVALGINAVAYYRGLDVSVIPTNGDVVVVSTDALMTGFTGDFDSVIDCNTCVTQTVDFSLDPTFTIETTTLPQDAVSRTQRRGRTGRGKPGIYRFVAPGERPSGMFDSSVLCECYDAGCAWYELMPAETTVRLRAYMNTPGLPVCQDHLEFWEGVFTGLTHIDAHFLSQTKQSGENFPYLVAYQATVCARAQAPPPSWDQMWKCLIRLKPTLHGPTPLLYRLGAVQNEVTLTHPITKYIMTCMSADLEVVTSTWVLVGGVLAALAAYCLSTGCVVIVGRIVLSGKPAIIPDREVLYQEFDEMEEC
B1 gave a Km [2] of 15 µM, a kcat/Km [2] of 1200 M⁻¹ s⁻¹ and a Km [3] of 30 µM. It also gave a kcat/Km [3] of 7900 M⁻¹ s⁻¹, a Km [4] of 56 µM and a kcat/Km [4] of 1400 M⁻¹ s⁻¹.
